We go through two molecules from patent US20170008955A1 (CNJ, published 2017).

The target of test [1] is T1, Aβ42 oligomers (UniProt P05067 672-713).
T1 construct: domain: Aβ42; immobilized preparation containing monomers, low and high molecular weight oligomers; also called Amyloid beta oligomers; Aβ oligomers
The test is described as follows: Biacore (SPR), Aβ oligomer preparation AβO1' (HQ AβO1'); upper end of the range. The method, then:
(§1) Using a Biacore™ 3000, Aβ42 oligomers were immobilized (containing monomers, low and high molecular weight oligomers) and BSA (reference surface) on 4 separate flow cells of a biosensorchip. Murine 5E3 or humanized 5E3 IgG1, IgG2, and IgG4 were then diluted, sequentially injected over the different immobilized peptides and antibody binding monitored in real time. Binding data was collected by sequentially injecting buffer blanks, 1/10 dilutions of m5E3 or 1 uM dilutions of hu5E3 control over separate flow cells immobilized with BSA or Aβ42 oligomer on another biosensor chip at a flow rate of 10 μl/minute. Association was allowed for 200 seconds, followed by dissociation for 500 seconds and binding responses collected 10 seconds before the end of the […]. All binding responses were double-referenced by subtracting buffer blanks and BSA reference surface binding.
(§2) Results: As shown in FIG. 9A and FIG. 9B, the humanized 5E3 isotypes bound to the Aβ42 oligomer preparation. Affinity constants were determined for hu5E3 IgG1 Aβ42 oligomer preparations.

In test [2] the target is T1, Aβ42 oligomers. Put plainly: Biacore (SPR), Aβ oligomer preparation AβO1' (HQ AβO1'); lower end of the range. The method, then: as §1, §2
(In SPR one partner is held on a chip, and binding of the other changes the refractive index at the surface.)

The target in test [3] is T2, Ovalbumin (UniProt P01012 2-386).
T2 sequence (looked up): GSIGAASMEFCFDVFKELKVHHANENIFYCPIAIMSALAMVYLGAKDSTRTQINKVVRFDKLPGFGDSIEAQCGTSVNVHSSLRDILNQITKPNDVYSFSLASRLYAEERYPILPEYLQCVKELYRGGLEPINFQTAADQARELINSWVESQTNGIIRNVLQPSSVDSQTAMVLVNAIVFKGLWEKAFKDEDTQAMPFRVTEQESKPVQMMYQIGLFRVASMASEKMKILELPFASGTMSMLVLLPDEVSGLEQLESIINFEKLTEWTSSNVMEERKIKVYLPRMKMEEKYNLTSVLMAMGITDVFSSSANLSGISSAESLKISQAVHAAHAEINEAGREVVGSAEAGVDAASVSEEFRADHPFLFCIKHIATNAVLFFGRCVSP
Put plainly: Western blot of BSA, BSA-cSNK and ovalbumin probed with hu5E3-IgG1. In general terms: Immunoblotting shows a protein as a band on a membrane.

Test [4] deals with T3, cSNK:BSA conjugate (bovine, head-to-tail cyclized; conjugated to BSA carrier).
T3 construct: also called BSA-cSNK
Put plainly: BLI 2:1 fit, site 1 (KD1); 6.25 nM row. How it is done: (§3) Biolayer interferometry (Octet […], ForteBio) was used to qualitatively/quantitatively assess the interactions between humanized versions of 5E3 and cSNK:BSA conjugate. […] MAbs were loaded onto sensors and then washed in PBST. Each sensor was associated with one of several cSNK:BSA standards (100 nM to 0 nM) and then washed in PBST. Data was processed statistically using ForteBio Data Analysis software to determine the strength of antigen-antibody binding (KD). For each mAb analyzed, a 2:1 model provided the “best fit”.

In test [5] the target is T3, cSNK:BSA conjugate. The test is described as follows: BLI 2:1 fit, site 1 (KD1); 1.56 nM row. How it is done:
as §3

The target of test [6] is T3, cSNK:BSA conjugate. The test is described as follows: BLI 2:1 fit, site 1 (KD1); 25 nM row. How it is done:
as §3

T3 sequence (P02769 25-607 limits assumed): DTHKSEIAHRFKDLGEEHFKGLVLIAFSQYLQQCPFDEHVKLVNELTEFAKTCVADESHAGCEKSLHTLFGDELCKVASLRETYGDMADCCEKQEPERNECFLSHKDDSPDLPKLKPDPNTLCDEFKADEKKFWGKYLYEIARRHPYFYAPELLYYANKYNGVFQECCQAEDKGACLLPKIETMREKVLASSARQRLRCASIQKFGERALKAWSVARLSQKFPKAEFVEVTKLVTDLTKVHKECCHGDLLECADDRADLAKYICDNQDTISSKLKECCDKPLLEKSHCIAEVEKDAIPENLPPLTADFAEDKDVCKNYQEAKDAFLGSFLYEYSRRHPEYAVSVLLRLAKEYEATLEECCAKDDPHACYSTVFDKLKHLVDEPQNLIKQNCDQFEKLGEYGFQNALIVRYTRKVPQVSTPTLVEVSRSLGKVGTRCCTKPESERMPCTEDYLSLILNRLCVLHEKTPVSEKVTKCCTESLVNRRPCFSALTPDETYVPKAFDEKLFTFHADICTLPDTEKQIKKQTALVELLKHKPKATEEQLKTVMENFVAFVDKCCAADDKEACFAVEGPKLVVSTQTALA
T1 sequence (P05067 672-713 limits assumed): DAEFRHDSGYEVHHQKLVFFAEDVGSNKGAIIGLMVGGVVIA

B1: hu5E3-IgG1 (antibody, V domains shown)
VH: QVQLQQSGPEVKKPGASVKISCKASGYIFTSYYIQWVIHAPGQGLEWIGWIYPGNVNTKYNEKFKGKATLTADKSSSTAYMELSSLTSEDTAVYFCARMDYEAHYWGQGTTVTVSS
VL: DIQMTQSPSSLSASVGDRVTITCRASQEISGYLTWLQQKPEGAIKRLIYAASTLDSGVPKRFSGSRSGSDYSLTISSLQPEDFATYNCLQYANYPRTFGGGTKLEIK
notes: human IgG1/kappa; also called humanized 5E3 IgG1; IHA variant
The Kd is a measure of binding affinity in units of concentration. A higher Kd goes with a looser complex. Take B1: the equilibrium dissociation constant (Kd) is ≤ 51700 nM in test [1] and ≥ 34000 nM in test [2]. Further, the binding result in test [3] was “no binding”.

B2: rehu5E3-IgG4 (antibody, V domains shown)
VH: QVQLQQSGPEVVKPGASVKISCKASGYIFTSYYIQWVIHAPGQGLEWIGWIYPGNVNTKYNEKFKGKATLTADKSSSTAYMELSSLRSEDSAVYFCARMDYEAHYWGQGTLVTVSS
VL: DIQMTQSPSSLSASLGDRVTLTCRASQEISGYLTWLQQKPEKAIKRLIYAASTLDSGVPKRFSGSRSGSDYTLTISSLQPEDFADYNCLQYANYPRTFGGGTKLEIK
notes: human IgG4/kappa; also called IgG4 rehu version
With B2, the Kd in test [4], in test [5] and in test [6] was 0.557 nM throughout.
